Target: T1, CRB1-FLAG p.C1174G (human, UniProt P82279 26-1406, p.C1174G)
T1 construct: Crumbs homolog 1, canonical form, human, cDNA NM_202153 as printed, with a patient missense mutation; Made by site-directed mutagenesis of m1; also called CRB1 p.C1174G; CRB1-FLAG MT; source: HEK293T, transfected, in lysate; not shown: Strep-Strep-FLAG, N-terminal, kept
T1 sequence (looked up): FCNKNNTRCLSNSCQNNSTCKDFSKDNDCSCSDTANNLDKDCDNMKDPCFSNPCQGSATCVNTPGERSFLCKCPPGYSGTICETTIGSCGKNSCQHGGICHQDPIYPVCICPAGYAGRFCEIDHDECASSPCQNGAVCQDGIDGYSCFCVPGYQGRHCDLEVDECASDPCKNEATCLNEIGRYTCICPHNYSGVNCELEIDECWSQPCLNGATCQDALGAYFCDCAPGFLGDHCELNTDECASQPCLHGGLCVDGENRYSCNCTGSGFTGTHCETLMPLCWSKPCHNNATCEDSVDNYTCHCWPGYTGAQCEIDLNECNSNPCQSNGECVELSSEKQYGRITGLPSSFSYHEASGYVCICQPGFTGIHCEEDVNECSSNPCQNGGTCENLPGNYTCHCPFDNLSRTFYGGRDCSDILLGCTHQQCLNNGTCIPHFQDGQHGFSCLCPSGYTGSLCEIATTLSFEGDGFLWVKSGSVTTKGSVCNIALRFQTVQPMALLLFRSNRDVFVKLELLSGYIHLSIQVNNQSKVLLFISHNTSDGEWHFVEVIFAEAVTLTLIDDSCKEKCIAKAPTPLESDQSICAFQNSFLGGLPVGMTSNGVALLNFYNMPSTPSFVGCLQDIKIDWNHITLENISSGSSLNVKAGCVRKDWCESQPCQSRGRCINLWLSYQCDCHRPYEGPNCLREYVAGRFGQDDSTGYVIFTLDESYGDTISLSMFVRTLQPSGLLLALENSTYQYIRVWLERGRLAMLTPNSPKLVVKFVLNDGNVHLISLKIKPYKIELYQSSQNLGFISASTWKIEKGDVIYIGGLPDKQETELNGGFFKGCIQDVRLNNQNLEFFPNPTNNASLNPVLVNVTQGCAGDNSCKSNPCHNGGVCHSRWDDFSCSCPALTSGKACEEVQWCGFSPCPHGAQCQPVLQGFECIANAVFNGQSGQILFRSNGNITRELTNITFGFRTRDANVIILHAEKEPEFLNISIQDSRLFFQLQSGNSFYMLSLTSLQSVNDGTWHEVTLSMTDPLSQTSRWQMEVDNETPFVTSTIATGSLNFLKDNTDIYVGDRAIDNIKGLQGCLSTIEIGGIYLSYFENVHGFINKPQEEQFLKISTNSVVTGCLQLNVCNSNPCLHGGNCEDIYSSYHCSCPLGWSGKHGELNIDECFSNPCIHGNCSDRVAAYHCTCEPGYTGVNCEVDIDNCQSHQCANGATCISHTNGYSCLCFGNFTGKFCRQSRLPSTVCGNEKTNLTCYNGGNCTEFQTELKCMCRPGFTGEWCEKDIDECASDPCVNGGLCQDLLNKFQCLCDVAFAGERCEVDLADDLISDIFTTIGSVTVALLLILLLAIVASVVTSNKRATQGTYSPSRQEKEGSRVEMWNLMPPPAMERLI
Experiment: co-IP; HEK293T cells co-transfected pairwise with a FLAG and an HA construct, 48 h; lysis in TBS (30 mM Tris-HCl pH 7.4, 150 mM NaCl) with 0.5% Nonidet P40; FLAG-IP on ANTI-FLAG M2 Affinity Gel 60-90 min at 4°C, elution with FLAG peptide; Western blot with HA and FLAG antibodies; for mutants HA/FLAG signal in eluates relative to WT, three biological replicates
Conditions: partners not purified

percent reduction of the interaction relative to CRB1 WT: 17%
B1: Human canonical CRB2 (Crumbs homolog 2) (natural protein)
chain: not shown
notes: Crumbs homolog 2, human, cDNA NM_173689; Stood as bait (FLAG copy) and as prey (HA copy) in the pairwise co-IP matrix; each copy carries only one of the two tags; The FLAG copy was the bait of the mass spectrometry pull-downs; also called CRB2-FLAG; CRB2-HA; source: HEK293T, transfected, in lysate (co-IP); HEK293T, transfected, FLAG-IP on beads, washed and purified with 0.01% SDS (retina …)

Reference: PMC10992996, “Human CRB1 and CRB2 form homo- and heteromeric protein complexes in the retina” (Life Science Alliance, 2024)
